Assay in all cases: cell-based or functional assay
The target of one assay is Y1R.
The target in another assay is Y4R.
Assay [1] deals with T1, human NPY2 receptor (human) (UniProt P49146).
T1 sequence (looked up): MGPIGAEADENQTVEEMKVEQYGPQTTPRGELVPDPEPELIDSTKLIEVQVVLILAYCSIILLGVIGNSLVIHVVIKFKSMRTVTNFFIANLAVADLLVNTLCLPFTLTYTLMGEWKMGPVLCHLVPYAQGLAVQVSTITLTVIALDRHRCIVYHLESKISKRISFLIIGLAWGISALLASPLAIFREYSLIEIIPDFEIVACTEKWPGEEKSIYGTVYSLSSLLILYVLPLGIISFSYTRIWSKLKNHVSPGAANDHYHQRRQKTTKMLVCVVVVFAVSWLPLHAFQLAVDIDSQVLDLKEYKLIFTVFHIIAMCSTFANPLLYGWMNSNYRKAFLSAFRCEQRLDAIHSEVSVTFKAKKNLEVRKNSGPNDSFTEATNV

Six substances from patent publication US7410949 can be followed below.

Y1R, sequence (P25929 whole entry): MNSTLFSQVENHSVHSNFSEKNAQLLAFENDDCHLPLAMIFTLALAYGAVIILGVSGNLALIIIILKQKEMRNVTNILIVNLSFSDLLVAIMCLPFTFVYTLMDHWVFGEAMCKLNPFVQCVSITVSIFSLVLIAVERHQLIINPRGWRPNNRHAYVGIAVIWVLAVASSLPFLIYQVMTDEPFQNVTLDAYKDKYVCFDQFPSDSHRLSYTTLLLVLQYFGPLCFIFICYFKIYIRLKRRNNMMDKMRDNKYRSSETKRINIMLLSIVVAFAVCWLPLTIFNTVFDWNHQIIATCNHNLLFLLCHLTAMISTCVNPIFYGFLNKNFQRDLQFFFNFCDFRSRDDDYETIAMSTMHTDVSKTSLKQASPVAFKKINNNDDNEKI

In the assay with Y1R, “Ac-Ach-Nle-Pqa-Arg-His-Tyr-Leu-Asn-Leu-Val-Thr-Arg-Gln-Arg-Tyr-NH2 (peptide)” gave a Y1R EC50(nM) FLIPR of over 5000 nM. In the assay with Y4R, this substance came in with a Y4R EC50(nM) FLIPR of over 5000 nM.
In the case of “Ac-1,1-Aic-Nle-Pqa-Arg-His-Tyr-Leu-Asn-Leu-Val-Thr-Arg-Gln-Arg-Tyr-NH2 (Pk A) (peptide)”, in assay [1], the Y2R EC50(nM) FLIPR worked out at 8.8 nM and the Y2R IC50(nM) cAMP stood at 0.64 nM. In the assay with Y1R, this substance gave a Y1R EC50(nM) FLIPR of 1650 nM. This substance yielded a Y4R EC50(nM) FLIPR with Y4R of over 5000 nM.
In turn, “Ac-Acp-Nle-Pqa-Arg-His-Tyr-Leu-Asn-Leu-Val-Thr-Arg-Gln-Arg-Tyr-NH2 (peptide)” came in with a Y1R EC50(nM) FLIPR with Y1R of over 5000 nM. Moreover, the Y4R EC50(nM) FLIPR in the assay with Y4R is over 5000 nM.
Take “Ac-1,1-Aic-Nle-Pqa-Arg-His-Tyr-Leu-Asn-Leu-Val-Thr-Arg-Gln-Arg-Tyr-NH2 (Pk B) (peptide)”: in assay [1], the Y2R EC50(nM) FLIPR was found to be 6 nM and the Y2R IC50(nM) cAMP amounted to 1 nM. Further, the Y1R EC50(nM) FLIPR in the assay with Y1R stood at 2650 nM. This substance returned a Y4R EC50(nM) FLIPR with Y4R of over 5000 nM.
“Ac-2,2-Aic-Nle-Pqa-Arg-His-Tyr-Leu-Asn-Leu-Val-Thr-Arg-Gln-Arg-Tyr-NH2 (peptide)” returned a Y1R EC50(nM) FLIPR with Y1R of over 5000 nM. Moreover, the Y4R EC50(nM) FLIPR with Y4R was over 5000 nM.
As to “Ac-Aib-Nle-Pqa-Arg-His-Tyr-Leu-Asn-Leu-Val-Thr-Arg-Gln-Arg-Tyr-NH2 (peptide)”, in the assay with Y4R, the Y4R EC50(nM) FLIPR was over 5000 nM.
